From article PMC9472616 (2022)

B1: CB6 (antibody, V domains shown)
VH: EVQLVESGGGLVQPGGSLRLSCAASGFTVSSNYMSWVRQAPGKGLEWVSVIYSGGSTFYADSVKGRFTISRDNSMNTLFLQMNSLRAEDTAVYYCARVLPMYGDYLDYWGQGTLVTVSS
VL: not shown
B2: REGN10987 (antibody, V domains shown)
VH: QVQLVESGGGVVQPGRSLRLSCAASGFTFSNYAMYWVRQAPGKGLEWVAVISYDGSNKYYADSVKGRFTISRDNSKNTLYLQMNSLRTEDTAVYYCASGSDYGDYLLVYWGQGTLVTVSS
VL: QSALTQPASVSGSPGQSITISCTGTSSDVGGYNYVSWYQQHPGKAPKLMIYDVSKRPSGVSNRFSGSKSGNTASLTISGLQSEDEADYYCNSLTSISTWVFGGGTKLTVL
B3: BD-368 (antibody, V domains shown)
VH: EVQLLESGGGVVQPGGSLRLSCAASGFAFTTYAMNWVRQAPGRGLEWVSAISDGGGSAYYADSVKGRFTISRDNSKNTLYLQMNSLRAEDTAVYYCAKTRGRGLYDYVWGSKDYWGQGTLVTVSS
VL: not shown
B4: REGN10933 (antibody, V domains shown)
VH: QVQLVESGGGLVKPGGSLRLSCAASGFTFSDYYMSWIRQAPGKGLEWVSYITYSGSTIYYADSVKGRFTISRDNAKSSLYLQMNSLRAEDTAVYYCARDRGTTMVPFDYWGQGTLVTVSS
VL: DIQMTQSPSSLSASVGDRVTITCQASQDITNYLNWYQQKPGKAPKLLIYAASNLETGVPSRFSGSGSGTDFTFTISGLQPEDIATYYCQQYDNLPLTFGGGTKVEIK

Biological target: SARS-CoV-2 WT RBD (SARS-CoV-2, UniProt P0DTC2 319-541)
Experiment: SPR

Binder	Kd [nM]
B1	30
B2	2.22
B3	3.47
B4	1.6
